In the Immune Epitope Database (IEDB):

Columns and labels:
[1] = molecular target: HLA-B*44:03; assay: IEDB peptide-MHC binding, purified MHC/competitive/radioactivity; filed as Kd, often an IC50 or EC50 that approximates it; ≥ and ≤ were set here for values at or beyond the usual limits of such assays
[2] = molecular target: HLA-B*44:02; assay: as above
[3] = molecular target: HLA-B*40:01; assay: as above
[4] = molecular target: HLA-B*53:01; assay: as above; details: source organism: Dengue virus 2 Jamaica/1409/1983
[5] = molecular target: HLA-B*51:01; assay: as above
[6] = molecular target: HLA-A*30:01; assay: as above
[7] = molecular target: HLA-A*32:01; assay: as above
[8] = molecular target: HLA-A*01:01; assay: as above
[9] = molecular target: HLA-A*26:01; assay: as above
[10] = molecular target: HLA-A*29:02; assay: as above
[11] = molecular target: HLA-A*30:02; assay: as above
[12] = molecular target: HLA-B*08:01; assay: as above
[13] = molecular target: HLA-B*35:01; assay: as above
[14] = molecular target: HLA-B*07:02; assay: as above; details: source organism: Dengue virus 1 Brazil/97-11/1997
[15] = molecular target: HLA-A*26:01; assay: IEDB peptide-MHC binding, purified MHC/competitive/fluorescence; filed as Kd, often an IC50 or EC50 that approximates it; ≥ and ≤ were set here for values at or beyond the usual limits of such assays; details: source organism: Orthohantavirus sinnombreense
[16] = source organism: Dengue virus 3 Martinique/1243/1999
[17] = source organism: Dengue virus 2 Jamaica/1409/1983
[18] = source organism: Dengue virus 4 Philippines/H241/1956
[19] = source organism: Dengue virus 1 Brazil/97-11/1997
[20] = source organism: Mammarenavirus brazilense
[21] = source organism: Vaccinia virus WR
[22] = source organism: Lymphocytic choriomeningitis virus (strain WE)

## KEISNMLSII
[1]; [16]
  Kd: 267 nM
[2]; [16]
  Kd: 29.4 nM
[3]; [16]
  Kd: 52.2 nM

## KELEGILLP
[1]; source organism: Homo sapiens
  Kd: 356 nM

## KPTLDFELI
[4]
  Kd: 279 nM
[5]; [17]
  Kd: ≥ 31200 nM

## KTKRILPSI
[6]; [18]
  Kd: 6.75 nM
[7]; [18]
  Kd: 125 nM

## LEKHGAERL
[3]; [19]
  Kd: 23.7 nM

## LINERDYSRY
[8]; [20]
  Kd: 1030 nM
[6]; [20]
  Kd: ≥ 70400 nM
[9]; [20]
  Kd: 1930 nM
[7]; [20]
  Kd: ≥ 69900 nM
[10]; [20]
  Kd: 16500 nM
[11]; [20]
  Kd: 633 nM

## LINLTTIAY
[8]; [20]
  Kd: 576 nM
[6]; [20]
  Kd: 9390 nM
[9]; [20]
  Kd: 12200 nM
[7]; [20]
  Kd: 8970 nM
[10]; [20]
  Kd: 345 nM
[11]; [20]
  Kd: 1450 nM

## LLLVTHYAI
[7]; source organism: Dengue virus 3 Singapore/8120/1995
  Kd: 41.6 nM

## LLQMEDKAWL
[12]; [17]
  Kd: 2010 nM

## LPVWLAYRVA
[13]; [17]
  Kd: 311 nM
[5]; [17]
  Kd: 4990 nM

## LSNGASLTI
[7]; [21]
  Kd: 73.5 nM

## MEAQLIRQM
[1]; [17]
  Kd: 119 nM
[2]; [17]
  Kd: 11.2 nM
[3]; [17]
  Kd: 802 nM

## MLKRARNRV
[12]; [19]
  Kd: 25 nM

## MPIRYQTTAV
[14]
  Kd: 11.3 nM
[13]; [19]
  Kd: 48 nM
[5]; [19]
  Kd: 347 nM

## MTKEASREY
[8]; [22]
  Kd: 3010 nM
[6]; [22]
  Kd: 108 nM
[9]; [22]
  Kd: 17.7 nM
[7]; [22]
  Kd: ≥ 56800 nM
[10]; [22]
  Kd: 616 nM
[11]; [22]
  Kd: 67.5 nM

## NDMISYGGGW
[1]; [18]
  Kd: 71.2 nM
[2]; [18]
  Kd: 6.18 nM

## NEMILMKMK
[1]; [18]
  Kd: 2910 nM
[2]; [18]
  Kd: 400 nM

## NLAERFCTE
[12]; [21]
  Kd: 1900 nM

## NNRVLFNNF
[12]; [21]
  Kd: 773 nM

## NNRYRFAFL
[12]; [21]
  Kd: 31.1 nM

## RLNQPVNNI
[7]; [21]
  Kd: 25 nM

## RSTSLSVSL
[7]; [17]
  Kd: 100 nM

## SGMRRQEQI
[12]; [21]
  Kd: 16.5 nM

## STVGASGVY
[15]
  Kd: ≤ 1 nM

## TAIANQAAIL
[12]; [19]
  Kd: 422 nM

## TLKRRSWPLN
[6]; [16]
  Kd: 5450 nM
[7]; [16]
  Kd: 19100 nM

## TRKVRSNAA
[12]; [17]
  Kd: 6.25 nM

## VATTFVTPM
[13]; [17]
  Kd: 205 nM

## VEDYGFGVF
[3]; [17]
  Kd: 315 nM

## VEKVETWAL
[3]; [16]
  Kd: 14.9 nM

## WIEDNPWMED
[7]; [16]
  Kd: 4160 nM

## WMIRILIGFL
[12]; source organism: Dengue virus 4 Dominica/814669/1981
  Kd: 168 nM

## WMVHRQWFFD
[7]; [16]
  Kd: 4960 nM

## YRPLHFQYV
[12]; [21]
  Kd: 245 nM
